Source: article PMC3378519, “Contribution of DEAF1 Structural Domains to the Interaction with the Breast Cancer Oncogene LMO4” (PLoS ONE, 2012)

Target: the molecule itself
Experiment: SEC-MALS; SEC-MALLS; about 200 µg of protein on a Superose 12 column with in-line MALLS detector; weight-averaged molecular weight in solution

B1: MBP-fused full length DEAF1, recombinant (natural protein, mouse, UniProt Q9Z1T5-1 1-566, looked up)
chain: MEDSDSAAKQLGLAEAAAVAAAAAVAAAAAAAAESEAEEPVLSRDEDSEEDADSEAERETRRVTAVAVMAAESGHMDMGTEALPSPDEAAAAAAAFAEVTTVTVANVGSSADNVFTTSVANAASISGHVLSGRTALQIGDSLNTEKATLIVVHTDGSIVETTGLKGPAAPLTPGPQSPPTPLAPGQEKGGTKYNWDPSVYDSELPVRCRNISGTLYKSRLGSGGRGRCIKQGENWYSPTEFEAMAGRASSKDWKRSIRYAGRPLQCLIQDGILNPHAASCTCAACCDDMTLSGPVRLFVPYKRRKKENELPTTPVKKDSPKNITLLPATAATTFTVTPSGQITTSGALTFDRASTVEATAVISESPAQGDVFAGATVQEAGVQPPCRVGHPEPHYPGYQDSCQIAPFPEAALPTSHPKIVLTSLPALAVPPSTPTKAVSPTVVSGLEMSEHRSWLYLEEMVNSLLNTAQQLKTLFEQAKQASSCREAAVTQARMQVDTERKEQSCVNCGREAMSECTGCHKVNYCSTFCQRKDWKDHQHVCGQSASVTVQADDVHVEESVIEKVAV
notes: DEAF1, mouse, NM_016874, full length; pMALC2 construct; about 10 subunits by SEC-MALLS, mixture of species; not shown: MBP, N-terminal, kept
With B1 the “stoichiometry N” value was ~10 subunits.

B2: GB1-tagged DEAF1_(454–487), isolated coiled coil, recombinant (domain or fragment, mouse, UniProt Q9Z1T5-1 454-487, looked up)
chain: WLYLEEMVNSLLNTAQQLKTLFEQAKQASSCREA
notes: DEAF1, mouse, NM_016874; source: E. coli Rosetta 2, purified (DEAE sepharose, Ni-NTA); not shown: His6, N-terminal, kept; GB1 (Gβ-1 domain of streptococcal protein G), N-terminal, kept
For B2, the “stoichiometry N” value was 4 subunits.

B3: DEAF1_(404–479), recombinant protein for SEC-MALLS (domain or fragment, mouse, UniProt Q9Z1T5-1 404-479, looked up)
chain: IAPFPEAALPTSHPKIVLTSLPALAVPPSTPTKAVSPTVVSGLEMSEHRSWLYLEEMVNSLLNTAQQLKTLFEQAK
notes: DEAF1, mouse, NM_016874; source: recombinant
B3: binds.

B4: MBP-fused DEAF1_(335–485), recombinant (domain or fragment, mouse, UniProt Q9Z1T5-1 335-485, looked up)
chain: TVTPSGQITTSGALTFDRASTVEATAVISESPAQGDVFAGATVQEAGVQPPCRVGHPEPHYPGYQDSCQIAPFPEAALPTSHPKIVLTSLPALAVPPSTPTKAVSPTVVSGLEMSEHRSWLYLEEMVNSLLNTAQQLKTLFEQAKQASSCR
notes: DEAF1, mouse, NM_016874; pMALC2 construct; not shown: MBP, N-terminal, kept
In the case of B4, the “stoichiometry N” value is reported as 4 subunits.
